A short description of data set [1]: OTA detoxification activity assay (specific activity, fluorescence reduction ex/em 390/450 nm). Format: biochemical. Particulars: SEQ ID NO: 1 = 100%. The gist of the method:
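Recombinant enzyme preparation with 200 ng/mL OTA in 100 mM sodium phosphate, at pH 6.0 and pH 7.5, 37° C. Degradation followed as the fall in fluorescence at ex/em 390/450 nm. Specific activity taken from the initial linear slope; one unit degrades 1 μmol OTA per min at a starting OTA of […].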

Data set [2] is described as follows: Enzymatic activity comparison: activity remaining after 65° C. for 10 min at pH 6.0, relative to SEQ ID NO: 1. Format: physicochemical. How it is done:
To compare the temperature behavior and thermostability of selected enzymes to one another, enzyme was incubated at 65° C. for 10 min at pH 6.0. The enzymatic activity remaining after incubation was compared to the remaining activity of the enzyme of SEQ ID NO: 1 after incubation, the latter being set to 100%, see Table 16.

B1: 287 (protein)
chain: MTTRTRILTAFLSLLAANACAADAAPAAPHTVVLRAARMFDGASGKLVDHPQLTIVGNKIVRIAQGDKAEVPAGAEVVDLGDATLLPGFIDAHVHLSGQSSDNWYGDFFDNMMRFPAEQALYGAYYARITLEAGFTSVRDVGSTDWVALGLRNAIDAGKVPGPRMLVSNYAVGSTGGHADQDPIPPHKLPLAGPLQGVCNGPEECRAAVRYQIKYGANVIKFMPSGGVISLSDPVDAPELSQDEMNAVIGESHAWGRKVAAHAHGDKAAKMAVAAGVDSIEHGSFIEDDTLRAMKAKNVYLVPTISAAAHVEEKIGTFPPVIAEKGRAAAAHLRQTFRHAVQIGVPIALGTDAGVGAHGSNAREFRYMVENGLTPAQALLAGTANAARLLGTFDRVGTLEAGKLADVVAVPGNPIADITVTERPLFVMKDGVVVRRDAVR
modifications: exemplary polypeptide
For the molecule B1, in data set [1], the “Specific OTA detoxification activities in % compared to the enzyme of SEQ ID NO: 1, pH 6.0” value came out at 151% and the “Specific OTA detoxification activities in % compared to the enzyme of SEQ ID NO: 1, pH 7.5” value came to 105%. For the same molecule, in data set [2], the “Enzymatic activity remaining after incubation, compared to SEQ ID NO: 1 (set to 100%)” value was 28%.

B2: 290 (protein)
chain: MTTRTRILTAFLSLLAANACAADAAPAAPHTVVLRAARMFDGASGKLVDHPQLTIVGNKIVRIAQGDKAEVPAGAEVVDLGDATLLPGFIDAHVHLSGQSSDNWYGDFFDNMMRFPAEQALYGAYYARITLEAGFTSVRDVGSTDWVALGLRNAIDAGKVPGPRMLVSNYAVGSTGGHADQDPIPPHKLPLAGPLQGVCNGPEECRAAVRYQIKYGANVIKFMPSGGVLSLSDPVDAPELSQDEMNAVIGESHAWGRKVAAHAHGDKAAKMAVAAGVDSIEHGSFIEDDTLRAMKAKNVYLVPTISAAAHVEEKIGTFPPVIAEKGRAAAAHLRQTFRHAVQIGVPIALGTDAGVPAHGSNAREFRYMVENGLTPAQALLAGTANAARLLGTFDRVGTLEAGKLADVVAVPGNPIADITVTERPLFVMKDGVVVRRDAVR
modifications: exemplary polypeptide
In the case of B2, in data set [1], the “Specific OTA detoxification activities in % compared to the enzyme of SEQ ID NO: 1, pH 6.0” value is listed as 160% and the “Specific OTA detoxification activities in % compared to the enzyme of SEQ ID NO: 1, pH 7.5” value was found to be 122%. Further, the “Enzymatic activity remaining after incubation, compared to SEQ ID NO: 1 (set to 100%)” value in data set [2] is 53%.

B3: 289 (protein)
chain: MTTRTRILTAFLSLLAANACAADAAPAAPHTVVLRAARMFDGASGKLVDHPQLTIVGNKIVRIAQGDKAEVPAGAEVVDLGDATLLPGFIDAHVHLSGQSSDNWYGDFFDNMMRFPAEQALYGAYYARITLEAGFTSVRDVGSTDWVALGLRNAIDAGKVPGPRMLVSNYAVGSTGGHADQDPIPPHKLPLAGPLQGVCNGPEECRAAVRYQIKYGANVIKFMPSGGVLSLSDPVDAPELSQDEMNAVIGESHAWGRKVAAHAHGDKAAKMAVAAGVDSIEHGSFIEDDTLRAMKAKNVYLVPTISAAAHVEEKIGTFPPVIAEKGRAAAAHLRQTFRHAVQIGVPIALGTDAGVFAHGSNAREFRYMVENGLTPAQALLAGTANAARLLGTFDRVGTLEAGKLADVVAVPGNPIADITVTERPLFVMKDGVVVRRDAVR
modifications: exemplary polypeptide
Turning to B3, in data set [1], the “Specific OTA detoxification activities in % compared to the enzyme of SEQ ID NO: 1, pH 6.0” value worked out at 66% and the “Specific OTA detoxification activities in % compared to the enzyme of SEQ ID NO: 1, pH 7.5” value is given as 106%. In addition, the “Enzymatic activity remaining after incubation, compared to SEQ ID NO: 1 (set to 100%)” value in data set [2] is given as 63%.

B4: 288 (protein)
chain: MTTRTRILTAFLSLLAANACAADAAPAAPHTVVLRAARMFDGASGKLVDHPQLTIVGNKIVRIAQGDKAEVPAGAEVVDLGDATLLPGFIDAHVHLSGQSSDNWYGDFFDNMMRFPAEQALYGAYYARITLEAGFTSVRDVGSTDWVALGLRNAIDAGKVPGPRMLVSNYAVGSTGGHADQDPIPPHKLPLAGPLQGVCNGPEECRAAVRYQIKYGANVIKFMPSGGVLSLSDPVDAPELSQDEMNAVIGESHAWGRKVAAHAHGDKAAKMAVAAGVDSIEHGSFIEDDTLRAMKAKNVYLVPTISAAAHVEEKIGTFPPVIAEKGRAVAAHLRQTFRHAVQIGVPIALGTDAGVGAHGSNAREFRYMVENGLTPAQALLAGTANAARLLGTFDRVGTLEAGKLADVVAVPGNPIADITVTERPLFVMKDGVVVRRDAVR
modifications: exemplary polypeptide
Consider B4, for which, in data set [1], the “Specific OTA detoxification activities in % compared to the enzyme of SEQ ID NO: 1, pH 6.0” value was found to be 29% and the “Specific OTA detoxification activities in % compared to the enzyme of SEQ ID NO: 1, pH 7.5” value is 31%. In addition, in data set [2], the “Enzymatic activity remaining after incubation, compared to SEQ ID NO: 1 (set to 100%)” value is listed as 90%.

The values above are taken from patent US20240352438A1, “MEANS AND METHODS FOR DETOXIFYING OCHRATOXIN A” (DSM Austria GmbH, priority 2021, published 2024).
